Values of other authors in paper PMC3085179.

Biological target: intermediate affinity IL-2 receptor (Homo sapiens) (UniProt P14784)
UniProt P14784, sequence (P14784 27-240, chain 1 of 2): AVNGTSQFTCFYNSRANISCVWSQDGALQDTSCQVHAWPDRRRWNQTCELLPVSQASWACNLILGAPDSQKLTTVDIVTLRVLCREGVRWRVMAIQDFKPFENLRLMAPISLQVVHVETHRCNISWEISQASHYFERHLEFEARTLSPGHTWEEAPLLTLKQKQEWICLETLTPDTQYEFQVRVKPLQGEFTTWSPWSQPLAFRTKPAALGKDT
UniProt P14784, sequence (P31785 23-262, chain 2 of 2, further chain): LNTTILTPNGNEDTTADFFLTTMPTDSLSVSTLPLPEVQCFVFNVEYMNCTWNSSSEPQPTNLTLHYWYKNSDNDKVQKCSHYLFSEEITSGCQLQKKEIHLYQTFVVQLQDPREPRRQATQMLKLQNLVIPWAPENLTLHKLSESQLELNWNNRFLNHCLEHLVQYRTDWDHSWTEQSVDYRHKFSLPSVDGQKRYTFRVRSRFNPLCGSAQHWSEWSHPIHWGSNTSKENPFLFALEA

IL-2, sequence (P60568 21-153): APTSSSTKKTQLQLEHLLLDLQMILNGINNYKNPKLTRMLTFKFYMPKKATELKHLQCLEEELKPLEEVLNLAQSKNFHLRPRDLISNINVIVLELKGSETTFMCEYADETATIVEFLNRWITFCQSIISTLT

Kd: 1 nM
Substance: IL-2 (from UniProt P60568)
